Source: US20050244915

Legend:
[1] = molecular target: T1, GST HIF-1α 775-826 N803A
T1 chain: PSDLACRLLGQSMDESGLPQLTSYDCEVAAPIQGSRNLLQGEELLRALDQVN

[2] = molecular target: GST HIF-1α 775-826 N803D, Q16665
[3] = molecular target: T2, HIF-1α 775-826, Q16665
T2 chain: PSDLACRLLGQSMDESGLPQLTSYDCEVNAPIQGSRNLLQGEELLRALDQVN

[4] = molecular target: T3, His6-HIF-1α 344-503, Q16665
T3 chain: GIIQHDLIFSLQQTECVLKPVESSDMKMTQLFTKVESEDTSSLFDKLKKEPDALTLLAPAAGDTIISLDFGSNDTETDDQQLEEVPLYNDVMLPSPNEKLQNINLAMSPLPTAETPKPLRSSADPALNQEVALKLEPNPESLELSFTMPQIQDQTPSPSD

[5] = molecular target: GST HIF-1α 775-826 [GST: P08515]
[6] = molecular target: GST HIF-1α 775-826 N803Q, Q16665
[7] = molecular target: GST HIF-1α 775-826 N803E, Q16665
[8] = molecular target: T4, GST HIF-1α 530-652, Q16665
T4 chain: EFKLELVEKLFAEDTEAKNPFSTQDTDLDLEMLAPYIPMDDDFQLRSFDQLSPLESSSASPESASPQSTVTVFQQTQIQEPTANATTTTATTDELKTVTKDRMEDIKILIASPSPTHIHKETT

[9] = molecular target: GST HIF-1α 577-826, Q16665
[10] = molecular target: T5, His6-HIF-1α 530-698, Q16665
T5 chain: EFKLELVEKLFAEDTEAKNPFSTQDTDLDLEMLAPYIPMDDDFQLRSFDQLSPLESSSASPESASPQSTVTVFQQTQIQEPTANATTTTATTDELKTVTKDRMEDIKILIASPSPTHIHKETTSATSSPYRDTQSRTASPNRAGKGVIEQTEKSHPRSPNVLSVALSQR

B1: Factor Inhibiting HIF (FIH), recombinant (protein)
chain: MAATAAEAVASGSGEPREEAGALGPAWDESQLRSYSFPTRPIPRLSQSDPRAEELIENEEPVVLTDTNLVYPALKWDLEYLQENIGNGDFSVYSASTHKFLYYDEKKMANFQNFKPRSNREEMKFHEFVEKLQDIQQRGGEERLYLQQTLNDTVGRKIVMDFLGFNWNWINKQQGKRGWGQLTSNLLLIGMEGNVTPAHYDEQQNFFAQIKGYKRCILFPPDQFECLYPYPVHHPCDRQSQVDFDNPDYERFPNFQNVVGYETVVGPGDVLYIPMYWWHHIESLLNGGITITVNFWYKGAPTPKRIEYPLKAHQKVAIMRNIEKMLGEALGNPQEVGPLLNTMIKGRYN
% activity relative to 775-826 peptide [1]: < 0.01% | CO2 released [1]: < 0.001 nmol | % activity relative to 775-826 peptide [2]: 7% | CO2 released [2]: 0.22 nmol | % activity relative to 775-826 peptide [3]: 100% | CO2 released [3]: 2.8 nmol | Km(peptide), 2-OG turnover assay [3]: Km(peptide)=10 µM | Vmax, 2-OG turnover assay [3]: Vmax=0.3 µmol/min/mg | mass increase of the substrate after reaction (mass spectrometry) [3]: an increase in mass of 16Da was observed after HPLC isolation of product | % activity relative to 775-826 peptide [4]: < 0.01% | CO2 released [4]: < 0.001 nmol | % activity relative to 775-826 peptide [5]: 96% | CO2 released [5]: 2.7 nmol | % activity relative to 775-826 peptide [6]: < 0.01% | CO2 released [6]: < 0.001 nmol | % activity relative to 775-826 peptide [7]: < 0.01% | CO2 released [7]: < 0.001 nmol | % activity relative to 775-826 peptide [8]: 1.8% | CO2 released [8]: 0.05 nmol | % activity relative to 775-826 peptide [9]: 67% | CO2 released [9]: 0.81 nmol | % activity relative to 775-826 peptide [10]: < 0.01% | CO2 released [10]: < 0.001 nmol
